The source of these data is the supplement of paper PMC10724198.

± gives the standard deviation of the averaged measurements.
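Also: PSI is a weighted mean of sequencing reads over stability bins, variants kept only with over 10 reads, mCherry proximal and sfGFP distal, peptide attached via GGGS linker.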

In the data set the test system is Saccharomyces cerevisiae. Description: protein stability index of tFT-peptide fusion (C-terminal peptide) (PSI (0-1 scale)); higher = more stable (slower turnover). To be noted: genetic background: wild type; temperature: 30 C.
Regarding KSKRKKKKQTKR, the protein stability index amounted to 0.653 ± 0.024.
The result for KSVGKGIIQLRL reads 0.726 ± 0.042; that for KTECMAIEKTLV, 0.686 ± 0.033; that for KTENGRSNSETR, 0.686 ± 0.074.
Under KTGLMRGHEVAS stands 0.673 ± 0.03; under KTGNKKQRKKKV, 0.753 ± 0.032; under KTHTIGPSPYYD, 0.649 ± 0.0088.
The result for KTKGPKSKPKRK reads 0.6563 ± 0.0046; that for KTKKNKITFKNK, 0.759 ± 0.02; that for KTNIKKQSKISK, 0.778 ± 0.18.
For KTQKNQKLTRSK, the protein stability index amounted to 0.769 ± 0.12.
The result for KTRKKEKKPSRK reads 0.6233 ± 0.0036.
For the sequence KVDGTIDSRVMS, the protein stability index amounted to 0.683 ± 0.089.
The result for KVRAGLGIRITQ reads 0.674 ± 0.021; that for KVRSFGGLFVKG, 0.68 ± 0.022.
KVSCGGAGDSLG yielded a protein stability index of 0.693 ± 0.022.
Sequence KVSIINAWKEKI returned a protein stability index of 0.679 ± 0.044.
Regarding KVVVWRAKTSHS, the protein stability index was found to be 0.692 ± 0.068.
In the case of KWLAQLEHEKYN, the protein stability index was 0.696 ± 0.025.
Regarding KWMKKIKTRRQI, the protein stability index is 0.609 ± 0.018.
Under KYHIKKPSTLEI stands 0.683 ± 0.01; under KYKKNNNKKQNQ, 0.704 ± 0.097.
In turn, KYYRKKNIEKEN came in with a protein stability index of 0.575 ± 0.017.
Under LACCGGLVTWVL stands 0.6891 ± 0.0046.
In turn, LACTSPLLLRFR showed a protein stability index of 0.673 ± 0.023.
LADFMFCALPLC yielded a protein stability index of 0.658 ± 0.045.
In turn, LADRTREFSNPA had a protein stability index of 0.6466 ± 0.0054.
Sequence LAFFPRGTPPHS yielded a protein stability index of 0.67 ± 0.029.
The result for LAGGGWGGACGE reads 0.655 ± 0.017; that for LAGLLMSPNMSP, 0.697 ± 0.025; that for LAGVEMWVGLEV, 0.61 ± 0.059.
Sequence LALKYLGQLIGA had a protein stability index of 0.594 ± 0.024.
Consider LALPSWVRYASR, for which the protein stability index was determined as 0.694 ± 0.016.
Take LALRMLWSIVRT: the protein stability index amounted to 0.599 ± 0.079.
As for LAMALRGGLYFS, the protein stability index amounted to 0.701 ± 0.011.
As for LAPALPPQPPSH, the protein stability index turned out to be 0.658 ± 0.023.
The sequence LAPPLPMPPPLA yielded a protein stability index of 0.682 ± 0.02.
Turning to LAPPPAAPLSHS, the protein stability index was determined as 0.697 ± 0.018.
The sequence LAPPPPARPALP displayed a protein stability index of 0.699 ± 0.0076.
Sequence LAPPTTAGPRPP gave a protein stability index of 0.599 ± 0.01.
LARASLVLPPSG gave a protein stability index of 0.648 ± 0.093.
With LASPDPSPLVVP, the protein stability index was 0.678 ± 0.02.
LASSVRSSASVP had a protein stability index of 0.739 ± 0.034.
The sequence LAYITTTPALAS registered a protein stability index of 0.581 ± 0.048.
The sequence LCAPPPSLSPFV gave a protein stability index of 0.708 ± 0.025.
Consider LCCPVFFAFCFP, for which the protein stability index was determined as 0.683 ± 0.094.
Consider LCFRSLFLCSLF, for which the protein stability index stood at 0.577 ± 0.13.
In turn, LCFVFDLASLCW displayed a protein stability index of 0.539 ± 0.04.
For LCGPKIGFVVSR, the protein stability index amounted to 0.704 ± 0.04.
Under LCGVWWGWWVGL stands 0.576 ± 0.026; under LCLDNFSSSWPI, 0.719 ± 0.02; under LCPSLLFSSSDP, 0.699 ± 0.024.
As for LCPVGLGFFVGL, the protein stability index came out at 0.666 ± 0.056.
Regarding LCRYFLRGVINT, the protein stability index amounted to 0.64998 ± 0.00026.
Sequence LCTCRLSDVRIG yielded a protein stability index of 0.6748 ± 0.0033.
The result for LDLLIVNFFNLV reads 0.69 ± 0.13; that for LDLLRCIQHCVV, 0.637 ± 0.027.
For LDPPHTLPRSAP, the protein stability index amounted to 0.70982 ± 0.0002.
Turning to LDSSPPCSSNCD, the protein stability index amounted to 0.736 ± 0.058.
Under LDVFSLASRPDG stands 0.5928 ± 0.0053; under LDVSGEVRVGRG, 0.629 ± 0.013.
As for LELADGRCARSG, the protein stability index was 0.8 ± 0.065.
Sequence LELTSDWRAYVY displayed a protein stability index of 0.643 ± 0.052.
Sequence LESSLPIDSERC returned a protein stability index of 0.675 ± 0.055.
Sequence LEVAGVLCSRVC registered a protein stability index of 0.56 ± 0.016.
Under LEWGRGFGLWGG stands 0.7823 ± 0.004.
With LEYRSCDFIDRS, the protein stability index was 0.625 ± 0.057.
The result for LFAGTFTEYPLS reads 0.641 ± 0.078; that for LFFLRSSSRGLW, 0.736 ± 0.055.
Regarding LFHRAVVGRVRP, the protein stability index was 0.634 ± 0.013.
Under LFICETRLDSRY stands 0.744 ± 0.13; under LFLYLGSGARAV, 0.721 ± 0.019; under LFPCPSMTLPRL, 0.706 ± 0.017.
The result for LFPFIPPRLPLP reads 0.687 ± 0.01; that for LFPHSLLPPPFF, 0.73 ± 0.042; that for LFPRCPPPPLTT, 0.653 ± 0.053.
For the sequence LFPSSHFSLSLH, the protein stability index came to 0.767 ± 0.033.
In turn, LFPSVCSTSSFS showed a protein stability index of 0.676 ± 0.034.
Regarding LFQFFSPCRIPE, the protein stability index is 0.749 ± 0.011.
On to LFRPSFFFFVCQ, for which the protein stability index stood at 0.548 ± 0.0027.
